Key:
[1] = molecular target: ORFV125 lacking the 30 C-terminal residues (orf virus); experiment: SEC
[2] = molecular target: ORFV125 lacking the 30 C-terminal residues (orf virus); experiment: ITC

Row | Molecule | stoichiometry N [1] | Kd [2] [nM]
1 | ORFV125 lacking the 30 C-terminal residues (domain or fragment) | 2 | –
2 | EEQWAREIGAQLRRMADDLNAQYERR [Puma BH3 motif peptide (human, 130-155)] | – | 1750
3 | VPQDASTKKLSECLKRIGDELDSNMELQ [Bax BH3 motif peptide (human, 50-77, 28-mer)] | – | 682
4 | PSSTMGQVGRQLAIIGDDINRRYDSE [Bak BH3 motif peptide (human, 67-92)] | – | 5800
